# How the values were obtained:
# Cft1;Pfs2;Yth1;Fip1 = Cft1;Pfs2;Yth1;Fip1 (Saccharomyces cerevisiae;Saccharomyces …, UniProt Q06632;P42841;Q06102;P45976 1-1357;1-465;1-208;1-327, |||); assay: EMSA; CPFpol (no Pap1); EMSA: 50 nM RNA, 0.25-4.0 uM protein, protein diluted in 10 mM HEPES pH 7.9, 150 mM NaCl, 0.5 mM Mg(OAc)2, plus 1x loading dye (orange G, glycerol, EDTA); 30 min on ice; native 6% acrylamide/TBE PAGE; conditions: protein: recombinant;recombinant;recombinant;recombinant; tags: ;3C-SII;3C-8H; untagged in CPFpol+Cft2;; copies: 1;2;1;1; label: 5'-FAM
# Ysh1;Mpe1;Yjr141w = Ysh1;Mpe1;Yjr141w (Saccharomyces cerevisiae;Saccharomyces …, UniProt Q06224;P35728;P47172 1-779;1-441;1-347, ||); assay: EMSA; EMSA: 50 nM RNA, 0.25-4.0 uM protein, protein diluted in 10 mM HEPES pH 7.9, 150 mM NaCl, 0.5 mM Mg(OAc)2, plus 1x loading dye (orange G, glycerol, EDTA); 30 min on ice; native 6% acrylamide/TBE PAGE; conditions: protein: recombinant;recombinant;recombinant; tags: ;3C-SII (C-terminal) in Ysh1-Mpe1 complexes; untagged in CPFcore;SII-3C (N-terminal) in Ysh1-Yjr141w; untagged in Ysh1-Mpe1-Yjr141w; copies: 1;1;1; label: 5'-FAM
# Ysh1;Mpe1;Yjr141w, sequence (Q06224 whole entry, chain 1 of 3): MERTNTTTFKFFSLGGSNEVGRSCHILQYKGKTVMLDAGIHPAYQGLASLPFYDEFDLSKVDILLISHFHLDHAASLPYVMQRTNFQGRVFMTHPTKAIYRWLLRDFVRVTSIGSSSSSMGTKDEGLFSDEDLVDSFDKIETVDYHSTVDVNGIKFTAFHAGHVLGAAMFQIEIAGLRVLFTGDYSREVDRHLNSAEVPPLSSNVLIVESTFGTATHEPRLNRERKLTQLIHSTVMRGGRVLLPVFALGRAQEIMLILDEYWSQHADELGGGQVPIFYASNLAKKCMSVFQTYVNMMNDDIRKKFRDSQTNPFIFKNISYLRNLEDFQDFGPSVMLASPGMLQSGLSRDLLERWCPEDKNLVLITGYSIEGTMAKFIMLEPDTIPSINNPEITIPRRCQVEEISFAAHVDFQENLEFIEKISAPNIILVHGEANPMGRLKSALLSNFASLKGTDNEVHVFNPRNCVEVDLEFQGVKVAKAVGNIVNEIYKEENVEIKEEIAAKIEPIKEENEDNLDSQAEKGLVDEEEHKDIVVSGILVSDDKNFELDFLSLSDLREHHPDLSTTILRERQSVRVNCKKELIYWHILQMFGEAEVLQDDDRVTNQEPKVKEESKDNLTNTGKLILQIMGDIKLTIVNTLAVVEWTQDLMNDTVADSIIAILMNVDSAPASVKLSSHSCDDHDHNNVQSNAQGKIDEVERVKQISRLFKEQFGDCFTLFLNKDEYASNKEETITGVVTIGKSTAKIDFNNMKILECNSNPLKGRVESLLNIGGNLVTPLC
# Ysh1;Mpe1;Yjr141w, sequence (P35728 whole entry, chain 2 of 3): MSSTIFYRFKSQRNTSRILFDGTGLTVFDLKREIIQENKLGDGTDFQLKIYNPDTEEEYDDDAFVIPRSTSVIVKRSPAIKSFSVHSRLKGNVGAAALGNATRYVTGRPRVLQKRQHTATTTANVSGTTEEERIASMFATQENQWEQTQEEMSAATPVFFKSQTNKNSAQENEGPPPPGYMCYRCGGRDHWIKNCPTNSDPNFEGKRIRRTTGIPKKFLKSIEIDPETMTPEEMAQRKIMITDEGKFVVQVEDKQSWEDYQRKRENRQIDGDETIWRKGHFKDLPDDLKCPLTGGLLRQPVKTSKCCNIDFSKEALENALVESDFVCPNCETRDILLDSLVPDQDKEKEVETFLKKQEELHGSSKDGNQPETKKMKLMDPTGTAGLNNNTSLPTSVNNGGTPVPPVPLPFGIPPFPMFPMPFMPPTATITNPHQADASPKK
# Ysh1;Mpe1;Yjr141w, sequence (P47172 whole entry, chain 3 of 3): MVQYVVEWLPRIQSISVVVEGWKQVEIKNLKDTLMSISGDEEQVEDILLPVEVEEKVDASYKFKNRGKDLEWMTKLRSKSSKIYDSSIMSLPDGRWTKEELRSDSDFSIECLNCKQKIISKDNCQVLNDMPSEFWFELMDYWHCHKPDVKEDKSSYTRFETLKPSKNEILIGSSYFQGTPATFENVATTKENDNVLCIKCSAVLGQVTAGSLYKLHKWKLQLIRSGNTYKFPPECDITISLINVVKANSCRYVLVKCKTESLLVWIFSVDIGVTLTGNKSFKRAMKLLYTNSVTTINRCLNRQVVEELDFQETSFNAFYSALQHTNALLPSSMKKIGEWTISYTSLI
# Cft1;Pfs2;Yth1;Fip1, sequence (Q06632 whole entry, chain 1 of 4): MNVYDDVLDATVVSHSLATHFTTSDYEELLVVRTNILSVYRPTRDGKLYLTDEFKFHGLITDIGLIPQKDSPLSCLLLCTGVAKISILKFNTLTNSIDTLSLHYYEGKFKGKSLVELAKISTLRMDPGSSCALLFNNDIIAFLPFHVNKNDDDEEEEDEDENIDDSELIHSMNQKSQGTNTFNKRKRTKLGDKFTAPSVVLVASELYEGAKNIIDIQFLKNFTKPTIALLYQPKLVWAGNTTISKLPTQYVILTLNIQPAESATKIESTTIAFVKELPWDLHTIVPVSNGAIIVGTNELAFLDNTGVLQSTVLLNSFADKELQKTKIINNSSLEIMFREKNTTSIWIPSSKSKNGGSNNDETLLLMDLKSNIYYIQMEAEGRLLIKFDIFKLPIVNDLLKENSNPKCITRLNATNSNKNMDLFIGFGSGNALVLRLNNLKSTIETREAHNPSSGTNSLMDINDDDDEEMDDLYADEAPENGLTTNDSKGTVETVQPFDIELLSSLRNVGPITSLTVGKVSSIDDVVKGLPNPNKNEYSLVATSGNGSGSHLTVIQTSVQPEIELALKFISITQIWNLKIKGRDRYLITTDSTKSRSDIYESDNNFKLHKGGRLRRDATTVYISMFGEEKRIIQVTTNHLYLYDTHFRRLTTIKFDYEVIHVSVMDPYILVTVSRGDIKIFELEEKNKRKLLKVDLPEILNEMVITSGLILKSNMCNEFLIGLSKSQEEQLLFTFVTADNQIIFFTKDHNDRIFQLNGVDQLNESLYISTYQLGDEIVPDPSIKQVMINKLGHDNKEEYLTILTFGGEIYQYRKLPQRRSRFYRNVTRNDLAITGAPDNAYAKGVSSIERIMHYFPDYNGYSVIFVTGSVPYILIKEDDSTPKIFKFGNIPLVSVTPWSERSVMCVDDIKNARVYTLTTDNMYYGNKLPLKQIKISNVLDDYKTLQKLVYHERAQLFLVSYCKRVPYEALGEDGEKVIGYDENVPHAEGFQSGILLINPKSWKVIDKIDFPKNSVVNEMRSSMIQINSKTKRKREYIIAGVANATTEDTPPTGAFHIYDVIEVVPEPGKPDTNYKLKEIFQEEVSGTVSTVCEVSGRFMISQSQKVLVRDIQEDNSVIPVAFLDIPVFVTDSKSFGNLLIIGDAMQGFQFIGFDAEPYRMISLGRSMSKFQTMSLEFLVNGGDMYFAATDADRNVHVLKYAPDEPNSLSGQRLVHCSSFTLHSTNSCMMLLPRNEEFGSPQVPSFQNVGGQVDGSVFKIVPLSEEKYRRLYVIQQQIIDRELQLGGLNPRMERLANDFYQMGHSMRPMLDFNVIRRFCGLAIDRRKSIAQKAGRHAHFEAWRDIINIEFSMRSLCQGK
# Cft1;Pfs2;Yth1;Fip1, sequence (P42841 whole entry, chain 2 of 4): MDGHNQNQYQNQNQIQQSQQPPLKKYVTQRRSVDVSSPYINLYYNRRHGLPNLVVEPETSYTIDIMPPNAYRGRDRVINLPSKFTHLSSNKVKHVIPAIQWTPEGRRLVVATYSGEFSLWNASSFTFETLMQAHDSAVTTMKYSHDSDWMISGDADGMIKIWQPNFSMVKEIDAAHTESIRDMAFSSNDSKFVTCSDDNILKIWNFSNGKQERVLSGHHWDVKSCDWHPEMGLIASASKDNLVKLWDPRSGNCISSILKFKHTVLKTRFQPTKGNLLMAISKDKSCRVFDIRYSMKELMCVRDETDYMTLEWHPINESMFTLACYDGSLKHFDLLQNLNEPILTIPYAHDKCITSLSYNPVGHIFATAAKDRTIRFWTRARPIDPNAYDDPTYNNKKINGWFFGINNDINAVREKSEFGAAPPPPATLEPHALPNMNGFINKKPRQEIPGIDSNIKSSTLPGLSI
# Cft1;Pfs2;Yth1;Fip1, sequence (Q06102 whole entry, chain 3 of 4): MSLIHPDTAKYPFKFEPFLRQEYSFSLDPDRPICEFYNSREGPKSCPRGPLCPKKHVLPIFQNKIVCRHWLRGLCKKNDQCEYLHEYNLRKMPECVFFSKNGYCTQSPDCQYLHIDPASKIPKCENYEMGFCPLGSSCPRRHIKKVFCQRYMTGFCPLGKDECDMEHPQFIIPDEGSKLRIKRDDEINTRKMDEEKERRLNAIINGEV
# Cft1;Pfs2;Yth1;Fip1, sequence (P45976 whole entry, chain 4 of 4): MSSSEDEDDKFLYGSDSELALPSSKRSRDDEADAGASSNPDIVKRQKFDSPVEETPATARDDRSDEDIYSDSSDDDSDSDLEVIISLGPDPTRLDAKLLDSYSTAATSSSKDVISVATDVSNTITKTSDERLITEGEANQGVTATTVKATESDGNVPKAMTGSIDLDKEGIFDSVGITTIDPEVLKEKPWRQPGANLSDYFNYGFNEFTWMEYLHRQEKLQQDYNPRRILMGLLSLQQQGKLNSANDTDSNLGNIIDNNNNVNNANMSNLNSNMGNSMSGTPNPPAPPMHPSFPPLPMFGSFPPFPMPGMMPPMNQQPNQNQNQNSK
Binder,binding result (Cft1;Pfs2;Yth1;Fip1),binding result (Ysh1;Mpe1;Yjr141w)
AAGAACGUUAUUUAUAUUUCAAAUUUUUCUUUUUU (ssRNA) [CYC1d EMSA probe],binds,
GGGGGGGGGGGGGGG (ssRNA) [G15],binds,binds
AAAAAAAAAAAAAAA (ssRNA) [A15],binds,no binding
CCCCCCCCCCCCCCC (ssRNA) [C15],no binding,no binding
UUUUUUUUUUUUUUU (ssRNA) [U15],no binding,no binding

# Reference: publication PMC6436931, “Activation of the Endonuclease that Defines mRNA 3′ Ends Requires Incorporation into an 8-Subunit Core Cleavage and Polyadenylation Factor Complex” (Molecular Cell, 2019)
